# The Immune Epitope Database (IEDB)
# Target: HLA-A*02:02
# Assay: IEDB peptide-MHC binding, purified MHC/competitive/radioactivity; ≥ and ≤ were set here for values at or beyond the usual limits of such assays
# Settings: source organism: Vaccinia virus WR
row,Sequence,IC50
1,ALTDVEKRIL,97 nM
2,AMIHKTYIDV,335 nM
3,ATLNTLITL,373 nM
4,AVTLNRIKIA,1720 nM
5,CLLTDTIESA,53 nM
6,CLTVPNITI,96 nM
7,DLLFNEKLKV,357 nM
8,DMLKLFTHDI,196 nM
9,DMLLNVQTLI,42 nM
10,FLARKGIDT,1020 nM
11,FLDWIKDIM,0.78 nM
12,FLPQIGGEAI,1 nM
13,FLQISRVNDL,5.2 nM
14,FMEEEIKAEM,1030 nM
15,GAFMYTKHSM,544 nM
16,GIADIRDKYM,0.69 nM
17,GIAIFNNRNL,5.1 nM
18,GIIITVGMLI,3580 nM

row,Sequence,IC50
1,GLCNYGGIL,98 nM
2,GLDERFVEEL,93 nM
3,GLFDINVIGL,0.16 nM
4,GLKIEEIEKV,15 nM
5,GLLDSIKMI,80 nM
6,GLRQQLEDI,43 nM
7,GLYIPGTSVI,92 nM
8,GMQFDKVYL,13 nM
9,GMSIVCIVA,190 nM
10,GMYYPTNDI,53 nM
11,GVSGLYIPGT,140 nM
12,IALCKVTVPT,1960 nM
13,IIGEPIIVA,2320 nM
14,ILDNAAKYV,126 nM
15,ILDNLRCHSA,972 nM
16,ILFQNNDINA,23 nM
17,ILGIIITVGM,288 nM

# Target: HLA-A*02:01
# Assay: as above
# Settings: source organism: Hepacivirus hominis
row,Sequence,IC50
1,ALYGVWPLLL,9 nM
2,CLWWTCYMLV,271 nM
3,FLLALLSCI,2.4 nM
4,FLLALLSCL,2.8 nM
5,FLLALLSCLT,92 nM
6,FMLCLLLLS,2730 nM
7,FMLCLLLLSV,149 nM
8,GLIHACMLV,1.3 nM
9,GLLGCIITSL,15 nM
10,GLLLLCVGV,43 nM
11,GLLYFILFFV,51 nM

# Same assay, conditions: source organism: Mammarenavirus brazilense
row,Sequence,IC50
1,GLLEWIFRA,1.2 nM

# Same assay, conditions: source organism: Mammarenavirus choriomeningitidis
row,Sequence,IC50
1,FMLNVSYLC,1050 nM

# Same assay, conditions: source organism: Mammarenavirus machupoense
row,Sequence,IC50
1,GLSQFTHTV,18 nM

# Same assay, conditions: source organism: Mammarenavirus whitewaterense
row,Sequence,IC50
1,FLLRGPFEAS,109 nM
2,GLVDVCFWS,112 nM

# Same assay, conditions: source organism: SARS-CoV1
row,Sequence,IC50
1,ALSGVFCGV,13 nM
2,ALVFLILCFT,161 nM
3,ALVLLILMTA,325 nM
4,ALVSGTATA,134 nM
5,AQFLYLYAL,0.39 nM
6,AQMGTLLIA,37 nM
7,FLFLAWIMLL,80 nM
8,FLLFLVLIML,140 nM
9,FLLNKEMYL,1.1 nM
10,FLMSFTILCL,9.2 nM
11,FLTNKLLLFA,6.2 nM
12,FLWLLWPVTL,0.98 nM
13,FLYIIKLVFL,19 nM
14,FQFICNLLLL,5.3 nM
15,HLDGEVLSL,67 nM
16,IAMWLLLLSI,216 nM
17,ILFLTLIVFT,21 nM

# Same assay, conditions: source organism: Vaccinia virus WR
row,Sequence,IC50
1,ALMTLDDLAI,0.74 nM
2,ALTDVEKRIL,429 nM
3,AMIHKTYIDV,173 nM
4,ATLNTLITL,57 nM
5,AVTLNRIKIA,1250 nM
6,CLLTDTIESA,188 nM
7,CLTVPNITI,1190 nM
8,DLLFNEKLKV,149 nM
9,DMLKLFTHDI,1450 nM
10,DMLLNVQTLI,80 nM
11,FLARKGIDT,1420 nM
12,FLDWIKDIM,19 nM
13,FLPQIGGEAI,158 nM
14,FLQISRVNDL,13 nM
15,FMEEEIKAEM,86 nM
16,GAFMYTKHSM,2000 nM
17,GIADIRDKYM,1100 nM
18,GIAIFNNRNL,1330 nM

row,Sequence,IC50
1,GIIITVGMLI,945 nM
2,GLCNYGGIL,412 nM
3,GLDERFVEEL,331 nM
4,GLFDINVIGL,13 nM
5,GLKIEEIEKV,65 nM
6,GLLDSIKMI,15 nM
7,GLRQQLEDI,125 nM
8,GLYIPGTSVI,1570 nM
9,GMQFDKVYL,72 nM
10,GMSIVCIVA,83 nM
11,GMYYPTNDI,268 nM
12,GVSGLYIPGT,4730 nM
13,IALCKVTVPT,2120 nM
14,IIGEPIIVA,1440 nM
15,ILDNAAKYV,14 nM
16,ILDNLRCHSA,63 nM
17,ILFQNNDINA,549 nM
18,ILGIIITVGM,1270 nM

# Target: HLA-A*68:02
# Assay: IEDB peptide-MHC binding, cellular MHC/competitive/fluorescence; ≥ and ≤ were set here for values at or beyond the usual limits of such assays
# Settings: source organism: Hepacivirus hominis
row,Sequence,IC50
1,ALYGVWPLLL,20600 nM
2,CLWWTCYMLV,10300 nM
3,FLLALLSCI,≥ 70000 nM
4,FLLALLSCL,14000 nM
5,FLLALLSCLT,≥ 70000 nM
6,FMLCLLLLS,≥ 70000 nM
7,FMLCLLLLSV,28100 nM
8,GLIHACMLV,37400 nM
9,GLLGCIITSL,48900 nM
10,GLLLLCVGV,49200 nM
11,GLLYFILFFV,23200 nM

# Same assay, conditions: source organism: Mammarenavirus brazilense
row,Sequence,IC50
1,GLLEWIFRA,53100 nM

# Same assay, conditions: source organism: Mammarenavirus choriomeningitidis
row,Sequence,IC50
1,FMLNVSYLC,8480 nM

# Same assay, conditions: source organism: Mammarenavirus machupoense
row,Sequence,IC50
1,GLSQFTHTV,15100 nM

# Same assay, conditions: source organism: Mammarenavirus whitewaterense
row,Sequence,IC50
1,FLLRGPFEAS,38900 nM
2,GLVDVCFWS,8220 nM

# Same assay, conditions: source organism: SARS-CoV1
row,Sequence,IC50
1,ALSGVFCGV,22500 nM
2,ALVFLILCFT,10500 nM
3,ALVLLILMTA,12500 nM
4,ALVSGTATA,31300 nM
5,AQFLYLYAL,9620 nM
6,AQMGTLLIA,12200 nM
7,FLFLAWIMLL,6180 nM
8,FLLFLVLIML,5940 nM
9,FLLNKEMYL,12000 nM
10,FLMSFTILCL,7570 nM
11,FLTNKLLLFA,11700 nM
12,FLWLLWPVTL,5220 nM
13,FLYIIKLVFL,26400 nM
14,FQFICNLLLL,9080 nM
15,HLDGEVLSL,13600 nM
16,IAMWLLLLSI,17200 nM
17,ILFLTLIVFT,7110 nM

# Same assay, conditions: source organism: Vaccinia virus WR
row,Sequence,IC50
1,ALMTLDDLAI,7700 nM
2,ALTDVEKRIL,13800 nM
3,AMIHKTYIDV,21200 nM
4,ATLNTLITL,5360 nM
5,AVTLNRIKIA,11000 nM
6,CLLTDTIESA,22200 nM
7,CLTVPNITI,8000 nM
8,DLLFNEKLKV,9970 nM
9,DMLKLFTHDI,6410 nM
10,DMLLNVQTLI,6690 nM
11,FLARKGIDT,≥ 70000 nM
12,FLDWIKDIM,26800 nM
13,FLPQIGGEAI,6540 nM
14,FLQISRVNDL,7360 nM
15,FMEEEIKAEM,16800 nM
16,GAFMYTKHSM,9600 nM
17,GIADIRDKYM,5930 nM
18,GIAIFNNRNL,11100 nM

row,Sequence,IC50
1,GIIITVGMLI,9200 nM
2,GLCNYGGIL,≥ 70000 nM
3,GLDERFVEEL,6180 nM
4,GLFDINVIGL,7080 nM
5,GLKIEEIEKV,≥ 70000 nM
6,GLLDSIKMI,≥ 70000 nM
7,GLRQQLEDI,≥ 70000 nM
8,GLYIPGTSVI,≥ 70000 nM
9,GMQFDKVYL,17200 nM
10,GMSIVCIVA,9840 nM
11,GMYYPTNDI,≥ 70000 nM
12,GVSGLYIPGT,15800 nM
13,IALCKVTVPT,≥ 70000 nM
14,IIGEPIIVA,6390 nM
15,ILDNAAKYV,22700 nM
16,ILDNLRCHSA,12800 nM
17,ILFQNNDINA,9980 nM
18,ILGIIITVGM,38300 nM
